# Patent US20240148866A1 (DENALI THERAPEUTICS, published 2024)
# B1: IgG:IDS fusion protein (anti-transferrin receptor antibody with an IDS enzyme linked to the C-terminus of each heavy chain) (antibody)
# heavy: not shown
# light: DIVMTQTPLSLSVTPGQPASISCRSSQSLVHSNGNTYLHWYLQKPGQSPQLLIYKVSNRFSGVPDRFSGSGSGTDFTLKISRVEAEDVGVYYCSQSTHVPWTFGQGTKVEIKRTVAAPSVFIFPPSDEQLKSGTASVVCLLNNFYPREAKVQWKVDNALQSGNSQESVTEQDSKDSTYSLSSTLTLSKADYEKHKVYACEVTHQGLSSPVTKSFNRGEC
# modifications: formylglycine (fG) in place of the Cys in the IDS part in the form given as SEQ ID NO:18; glycans carry about 1.5-2.3 mol/mol M6P and about 15-16 mol/mol sialic acid per fusion protein
# notes: Antibody-enzyme fusion with human IgG1 constant regions, expressed in ExpiCHO cells co-transfected with SUMF1
# Key:
# [1] = molecular target: T1, apical domain of human transferrin receptor (hTfR^apical) (human, UniProt P02786 198-378); test: SPR (Biacore T200), IgG:IDS captured on Protein A chip, hTfR apical domain injected, single-cycle kinetics
# T1 construct: also called apical domain of hTfR
# T1 sequence (P02786 198-378 limits assumed): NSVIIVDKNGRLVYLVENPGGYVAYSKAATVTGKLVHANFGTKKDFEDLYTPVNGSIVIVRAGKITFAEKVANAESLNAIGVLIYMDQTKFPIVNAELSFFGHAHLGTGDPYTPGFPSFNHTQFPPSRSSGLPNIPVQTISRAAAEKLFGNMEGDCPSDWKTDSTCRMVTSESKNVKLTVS
# Method: (§1) The affinity of IgG:IDS for human transferrin receptor (hTfR) was determined by surface plasmon resonance on a Biacore™ T200 instrument using two methods, similar to previously described (Kariolis et al. 2020. Sci Transl Med 12(545):eaay1359). In Method 1, to evaluate monovalent TfR binding affinity, IgG:IDS was captured on a Protein A-coated Biacore™ Series S CM5 sensor chip and serial dilutions of the apical domain of hTfR (hTfR^apical) were injected over the captured sample. In Method 2, for evaluation of apparent hTfR binding affinity of IgG:IDS, biotinylated full-length hTfR was immobilized on a streptavidin-coated CM5 sensor chip, followed by injection of serial dilutions of IgG:IDS. For both methods, the single-cycle kinetics mode was used for sample injection (association time, 90 s; dissociation time, 600 s), and binding affinities were calculated using Biacore T200 Evaluation Software v3.0.
# [2] = molecular target: T2, biotinylated full-length human transferrin receptor (hTfR) (human, UniProt P02786 89-760, limits assumed, biotinylated (site not stated)); test: SPR (Biacore T200), biotinylated full-length hTfR on streptavidin chip, IgG:IDS injected, single-cycle kinetics; apparent (avid) affinity
# T2 construct: Printed as 'biotinylated full-length hTfR', immobilized on a streptavidin chip; also called full-length hTfR; full-length receptor
# T2 sequence (P02786 89-760 limits assumed): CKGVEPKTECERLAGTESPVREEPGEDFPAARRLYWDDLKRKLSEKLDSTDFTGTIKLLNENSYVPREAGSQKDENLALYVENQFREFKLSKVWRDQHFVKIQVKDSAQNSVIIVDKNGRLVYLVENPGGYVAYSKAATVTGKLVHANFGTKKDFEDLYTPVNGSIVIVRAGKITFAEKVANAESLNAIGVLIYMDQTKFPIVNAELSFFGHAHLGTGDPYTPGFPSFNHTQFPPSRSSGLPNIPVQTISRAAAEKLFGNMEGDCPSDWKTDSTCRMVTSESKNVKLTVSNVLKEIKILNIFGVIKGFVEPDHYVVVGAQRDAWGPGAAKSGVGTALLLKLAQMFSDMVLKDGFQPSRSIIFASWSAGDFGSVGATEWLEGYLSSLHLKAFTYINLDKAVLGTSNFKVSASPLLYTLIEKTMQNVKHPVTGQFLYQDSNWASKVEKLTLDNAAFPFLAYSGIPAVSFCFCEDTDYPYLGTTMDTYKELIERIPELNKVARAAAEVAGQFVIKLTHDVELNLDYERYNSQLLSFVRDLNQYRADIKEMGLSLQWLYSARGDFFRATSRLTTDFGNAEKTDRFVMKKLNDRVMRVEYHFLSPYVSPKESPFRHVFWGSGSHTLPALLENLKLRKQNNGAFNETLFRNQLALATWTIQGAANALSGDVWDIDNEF
# Method: as §1
# [3] = molecular target: T3, Fc fusion of the 9th domain of human cation independent mannose-6-phosphate receptor (ciM6PR; Uniprot P11717) (human, UniProt P11717 1225-1363, limits assumed); test: ELISA: plate coated with the Fc fusion of ciM6PR domain 9, IgG:IDS titrated, detection with biotinylated anti-IDS antibody and streptavidin-HRP, A450
# T3 construct: domain: 9th domain; It was coated on ELISA plates at 1 ug/mL
# T3 sequence (P11717 1225-1363 limits assumed, one chain of several): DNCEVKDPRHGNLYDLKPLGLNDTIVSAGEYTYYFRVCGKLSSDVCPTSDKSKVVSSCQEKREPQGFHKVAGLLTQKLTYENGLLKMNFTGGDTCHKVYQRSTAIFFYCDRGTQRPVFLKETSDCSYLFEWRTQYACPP
# Method: ELISA plates were coated with an Fc fusion of the 9th domain of human cation independent mannose-6-phosphate receptor (ciM6PR; Uniprot P11717) at 1 μg/mL in PBS overnight at 4° C. The following day, the plate was washed three times with wash buffer (PBS with 0.02% Tween-20) and blocking buffer (PBS with 0.02% Tween-20 and 5% BSA) was added to each well. Blocking was carried out for 1 hour at room temperature after which the plate was washed three times, and IgG:IDS was added to the first column of the plate at a concentration of 25 nM. A 3-fold serial dilution was performed across the plate. Primary incubation of the binding reactions was carried out for one hour at room temperature. After binding, the plate was washed three times, and binding was detected using biotinylated anti-IDS antibody diluted to 0.0625 μg/mL in sample buffer. The plate was incubated with a detection antibody for one hour at room temperature and then washed three times. Streptavidin-HRP, diluted 1:50,000 in sample buffer, was then added to each well. The plate was incubated for 30 minutes at room temperature and then washed three times. The ELISA was developed using TMB reagent. The ELISA plate was read on a HighRes BioTek Synergy plate reader, where the absorbance at 450 nm was recorded.
binder,measurement,setting,value
B1,Kd,[1],2.6 nM
same,Kd,[2],~0.1 nM
same,EC50 (read off the curve),[3],~0.08 nM
